Experimental data published in article PMC8805217, “Crystal structure of a hypothetical protein from Giardia lamblia” (Acta Crystallographica. Section F, Structural Biology …, 2022).

Molecular target: the molecule itself
Assay: crystal structure; X-ray, molecular replacement, 1.35 Å; sitting-drop vapor diffusion at 290 K, protein in 20 mM HEPES pH 7.0, 300 mM NaCl, 5% glycerol, 1 mM TCEP; reservoir 100 mM Tris pH 5.5, 25% PEG 3350, 200 mM ammonium acetate

B1: hypothetical protein from Giardia lamblia (GilaA.00312.a) (natural protein)
chain: GPGSMIYGILSKNLGMPTPTFLVCPDVVKFENVGQIAVVNGMVYLGGSVGIDKSGTLHKGLEEQTRQTFDNIRKCLEYANSGLDYIVSLNIFLSTSLSDSEEARFNELYREVFCVPATRPCRCCVRAQLQEGLLVEVVNVVAAQK
notes: hypothetical protein of Giardia lamblia GL50803_14299, 141 amino acids, amino acids 1-141 of UniProt A8BD71; Homotrimer in the crystal structure (PDB 3i3f); also called hypothetical G. lamblia protein; GL50803_14299; source: E. coli BL21(DE3)R3 Rosetta, purified (IMAC, 3C cleavage of the His tag, reverse IMAC, SEC); not shown: 6xHis, N-terminal, cleaved
For B1, the “stoichiometry N” value was 3.
